{"source": "patent US20110021974A1", "about": "“RETINITIS PIGMENTOSA TREATMENT AND PROPHALAXIS” (priority 2010, published 2011)", "key": {"[1]": {"tested_on": "macular edema", "details": "in vivo; cited from earlier work"}, "[2]": {"experiment": "Curcumin safety for retina and CNS", "details": "in vivo", "text": "Deferoxamine may modulate expression and release of inflammatory mediators in the retinitis pigmentosa as indicated in Fenton reaction by specific cell types, thus, reduce or stop the damage by our invention. Deferoxamine used with insulin of our invention along with ophthalmic drops can reduce the ROS oxidant damage, arrest, or delay the processes of retinitis pigmentosa. We have used this method to treat the CNS disease with good results. We have used the extract of Turmeric, called curcumin, with insulin as antioxidant with good results."}, "[3]": {"experiment": "MSM ophthalmic drops in patients", "assay_type": "in vivo", "excerpt": "We have used aqueous solutions of MSM filtered, sterilized, and mixed with insulin."}, "[4]": {"details": "cited from earlier work"}, "[5]": {"tested_on": "retinitis pigmentosa", "details": "administered in a form suitable to obtain therapeutic tissue concentrations; cited from earlier work"}, "[6]": {"tested_on": "patients with retinitis pigmentosa", "details": "cited from earlier work"}, "[7]": {"details": "in vivo; cited from earlier work"}, "[8]": {"experiment": "ADT given orally and as eye drops in dry mouth and dry eyes conditions", "assay_type": "in vivo", "details": "25 mg orally and nanograms concentration in eye drops", "procedure": "Follow the instruction as described in the above EXAMPLE 1. Another drug available to treat autoimmune disease related to Sjogren's disease is an organo sulfur compound, anethole dithiolethione (ADT-trade name Sialor, sold over the counter in Canada) with hardly any side effects. The ADT stimulates the secretion of saliva, in patients with autoimmune exocrinopathy (Sjogren's syndrome). Sialor alleviates the symptoms of xerostomia and xeroophthalmia. We have used ADT 25 mg orally and ADT in nanograms concentration in liquid ophthalmic eye drops with successes in these conditions, especially, those on chemotherapy, menopausal women, and chronic smokers with dry mouth and dry eyes conditions."}, "[9]": {"tested_on": "photoreceptor cell", "details": "applied topically to the eyes; in vitro model; cited from earlier work"}, "[10]": {"text": "The present invention formulations contain only 0.10 to 1.00 IU per drop which the dosage can be increased or the dosage can be decreased depending upon the disease states."}, "[11]": {"tested_on": "retinitis pigmentosa", "experiment": "Insulin ophthalmic drops in oculopathies including retinitis pigmentosa", "assay_type": "in vivo", "details": "used for years", "text": "This and other metabolic and therapeutic qualities of the insulin will prevent the development, stop the progression, and curtail or cure the retinitis pigmentosa. I have used insulin ophthalmic drops for various oculopathies, including, retinitis pigmentosa for years with great success."}, "[12]": {"experiment": "Insulin added to anti allergic ophthalmic agents in eye allergy", "assay_type": "in vivo", "details": "insulin with vasoconstrictors and anti allergic agents such as corticosteroids", "text": "Follow the instruction as described in the above EXAMPLE 1. The symptoms of an eye allergy are mild to moderate where allergies can be severe during early spring and the beginning of fall. Self treatment to avoid allergens, to irrigate the eyes with saline (salt solution) and to place the ice packs, and the cold water compresses on eyes which this may not be effective in a severe case. The medical treatment is needed to relieve them. Retinitis pigmentosa associated with severe allergic conjunctivitis. This condition isn't helped by other treatments. Conjunctivitis may benefit from specific allergen immunotherapy (desensitization) which the therapy is usually effective. Most commonly used and prescribed medications are: levocabastine (brand name Livostin); antihistamines (antolozine) together with a medicine that constricts blood vessels (naphazoline, phenylephrine); sodium cromoglycate (4%); non-steroidal anti-inflammatory (NSAID) eye drops; and steroids (hydrocortisone, Dexamethasone, prednisolone). Eye drops containing anti allergic, vasoconstrictors, and cortisone, can be used long term to treat retinitis pigmentosa and allergic conditions. The drops with insulin applied before the use of the above described therapeutic agents."}, "[13]": {"details": "preliminary studies"}, "[14]": {"tested_on": "H2O2 induced lipid peroxidation", "details": "insulin pretreatment; cited from earlier work"}, "[15]": {"tested_on": "MCF-7 human breast cancer cells", "details": "in vitro; cited from earlier work"}}, "data": [{"compound": "CC(=O)Nc1nnc(S(N)(=O)=O)s1", "note": "[Acetazolamide]", "values": [{"measurement": "improving the macular edema compared to brinzolamide", "setting": "[1]", "value": "more effective"}]}, {"compound": "COc1cc(/C=C/C(=O)CC(=O)/C=C/c2ccc(O)c(OC)c2)ccc1O", "note": "[Curcumin, curcumin]", "values": [{"measurement": "toxicity to the retina or the CNS", "setting": "[2]", "value": "isn't toxic to the retina or the CNS"}]}, {"compound": "CS(C)(=O)=O", "note": "[MSM, Methylsulfonylmethane]", "values": [{"measurement": "vision reported by patients", "setting": "[3]; MSM ophthalmic drops, aged, Lyme disease and cancer patients", "value": "their vision had improved"}, {"measurement": "treatment result in retinitis pigmentosa, dry eye syndrome, glaucoma and other oculopathies", "setting": "[3]; aqueous MSM mixed with insulin, as eye drops", "value": "good results"}, {"measurement": "solubility in water", "setting": "[4]", "value": "soluble in water"}]}, {"compound": "O=C(O)COc1nn(Cc2ccccc2)c2ccccc12", "note": "[bendazac, (1-phenylmethyl-1IH-indazol-3-yl) oxy acetic acid]", "values": [{"measurement": "effect on retinitis pigmentosa", "setting": "[5]", "value": "improvement in retinitis pigmentosa"}]}, {"compound": "CCCCCCCCCCCCCCCC(=O)OC/C=C(C)/C=C/C=C(C)/C=C/C1=C(C)CCCC1(C)C", "note": "[vitamin A palmitate]", "values": [{"measurement": "progression of retinitis pigmentosa", "setting": "[6]; daily intake of 15000 IU (equivalent to 4.5 mg)", "value": "can be reduced"}]}, {"compound": "Insulin aspart", "values": [{"measurement": "Onset of Action in hours", "setting": "[7]", "value": "¼-½"}]}, {"compound": "Insulin detemir", "values": [{"measurement": "Effective duration of action", "setting": "[7]", "value": 14, "unit": "h"}, {"measurement": "Maximum duration", "setting": "[7]", "value": "~20", "unit": "h"}, {"measurement": "Onset of Action", "setting": "[7]", "value": "3 to 4", "unit": "h"}, {"measurement": "Peak action in hours", "setting": "[7]", "value": "6 to 8", "unit": "h"}]}, {"compound": "Insulin glargine", "values": [{"measurement": "Effective duration of action", "setting": "[7]", "value": "18 to 20", "unit": "h"}, {"measurement": "Maximum duration", "setting": "[7]", "value": "20 to 24", "unit": "h"}, {"measurement": "Onset of Action", "setting": "[7]", "value": "3 to 4", "unit": "h"}, {"measurement": "Peak action in hours", "setting": "[7]", "value": "8 to 16", "unit": "h"}]}, {"compound": "Insulin glulisine", "values": [{"measurement": "Onset of Action in hours", "setting": "[7]", "value": "¼-½"}]}, {"compound": "Insulin lispro", "values": [{"measurement": "Onset of Action in hours", "setting": "[7]", "value": "¼-½"}]}, {"compound": "Regular (soluble): short-acting insulin", "values": [{"measurement": "Effective duration of action", "setting": "[7]", "value": "3 to 6", "unit": "h"}, {"measurement": "Maximum duration", "setting": "[7]", "value": "6 to 8", "unit": "h"}, {"measurement": "Peak action in hours", "setting": "[7]", "value": "2 to 3", "unit": "h"}]}, {"compound": "anethole dithiolethione [ADT]", "values": [{"measurement": "treatment result in dry mouth and dry eyes conditions", "setting": "[8]", "value": "successes"}]}, {"compound": "brimonidine tartrate", "values": [{"measurement": "photoreceptor cell degeneration", "setting": "[9]", "value": "can prevent photoreceptor cell degeneration"}]}, {"compound": "insulin", "values": [{"measurement": "blood sugar levels after local application", "setting": "[10]; local application incl. scalp, gums, oral and nasal mucosa, conjunctival sac, wounds, tumors", "value": "did not change the blood sugar levels"}, {"measurement": "hypoglycemic effects", "setting": "[10]; ophthalmic insulin drops, applicant's practice", "value": "never reported the development of a single case of hypoglycemic effects"}, {"measurement": "treatment result in oculopathies including retinitis pigmentosa", "setting": "[11]", "value": "great success"}, {"measurement": "relief of the allergic condition", "setting": "[12]", "value": "relieved rapidly"}, {"measurement": "absorption from the conjunctival sac", "setting": "[13]", "value": "rapidly absorbed"}, {"measurement": "H2O2 induced lipid peroxidation", "setting": "[14]", "value": "greatly inhibited"}, {"measurement": "increase of the cytotoxic effect of methotrexate", "setting": "[15]", "value": "up to 10,000 fold"}]}, {"compound": "vitamin A", "values": [{"measurement": "postponement of blindness", "setting": "[6]; vitamin A supplementation", "value": "~10", "unit": "years"}]}]}
